From patent publication US20250270328A1 (BRIGHAM AND WOMEN S HOSPITAL, published 2025)
Changes are numbered by the printed parent chain.

T1: human KLRB1 protein extracellular domain (ECD) (human, UniProt Q12918 67-225)
T1 construct: range 67-225; The ELISA and SPR text says only 'human KLRB1 ECD'; also called human KLRB1 ECD; CD161
T1 sequence (looked up): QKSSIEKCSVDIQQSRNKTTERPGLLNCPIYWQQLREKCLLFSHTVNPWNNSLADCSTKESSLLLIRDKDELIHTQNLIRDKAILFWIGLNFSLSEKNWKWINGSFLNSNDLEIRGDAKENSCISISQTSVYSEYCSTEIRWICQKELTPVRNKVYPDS

B1: 10A3D6C109Chum2.2 (antibody, V domains shown)
VH: QVQLVQSGAEVKKPGASVKVSCKASGYSFTGYTMNWVRQAPGQNLEWIGLINPNTGGTYYNQKFKDRVTLTVDTSISTAYMELSRLRSDDTAVYYCARLGDNYRGYFDCWGQGTTVTVSS
VL: DIQLTQSPSFLSASVGDRVTITCKASQDVGTAVVWYQQKPGKAPKLLIDWASIRHTGVPSRFSGSGSGTEFTLTISSLQPEDFADYFCQQYSTYLYTFGGGTKLEIK
notes: Humanized variant of 10A3D6 made by CDR grafting
B2: 10A3D6C109Chum1.1 (antibody, V domains shown)
VH: B1 VH with N44G, I48M, L70M, V72R
VL: B1 VL with D49Y, D85T, F87Y
notes: as for B1
B3: 10A3D6C109Chum5.1 (antibody, V domains shown)
VH: B1 VH with I48M, A92V, T115L
VL: B1 VL with D49Y, D85T, F87Y
notes: as for B1
B4: 10A3D6C109Chum2.4 (antibody, V domains shown)
VH: B1 VH
VL: B1 VL with K39T, S60D
notes: as for B1
B5: 10A3D6C109Chum5.3 (antibody, V domains shown)
VH: B1 VH with I48M, A92V, T115L
VL: B1 VL with K39T
notes: as for B1
B6: 10A3D6C109Chum3.2 (antibody, V domains shown)
VH: B1 VH with P41H
VL: B1 VL
notes: as for B1
B7: 10A3D6C109Chum4.2 (antibody, V domains shown)
VH: B1 VH with P41H, V68A
VL: B1 VL
notes: as for B1
B8: 10A3D6C109Chum4.4 (antibody, V domains shown)
VH: B1 VH with P41H, V68A
VL: B1 VL with K39T, S60D
notes: as for B1
B9: 10A3D6C109Chum2.3 (antibody, V domains shown)
VH: B1 VH
VL: B1 VL with K39T
notes: as for B1
B10: 10A3D6C109Chum3.4 (antibody, V domains shown)
VH: B1 VH with P41H
VL: B1 VL with K39T, S60D
notes: as for B1
B11: 10A3D6C109Chum3.1 (antibody, V domains shown)
VH: B1 VH with P41H
VL: B1 VL with D49Y, D85T, F87Y
notes: as for B1
B12: 10A3D6C109Chum2.1 (antibody, V domains shown)
VH: B1 VH
VL: B1 VL with D49Y, D85T, F87Y
notes: as for B1
B13: 10A3D6C109Chum3.3 (antibody, V domains shown)
VH: B1 VH with P41H
VL: B1 VL with K39T
notes: as for B1
B14: 10A3D6C109Chum1.3 (antibody, V domains shown)
VH: B1 VH with N44G, I48M, L70M, V72R
VL: B1 VL with K39T
notes: as for B1
B15: 10A3D6C109Chum4.1 (antibody, V domains shown)
VH: B1 VH with P41H, V68A
VL: B1 VL with D49Y, D85T, F87Y
notes: as for B1
B16: 10A3D6C109Chum1.2 (antibody, V domains shown)
VH: B1 VH with N44G, I48M, L70M, V72R
VL: B1 VL
notes: as for B1
B17: 10A3D6C109Chum5.2 (antibody, V domains shown)
VH: B1 VH with I48M, A92V, T115L
VL: B1 VL
notes: as for B1
B18: 10A3D6C109Chum1.4 (antibody, V domains shown)
VH: B1 VH with N44G, I48M, L70M, V72R
VL: B1 VL with K39T, S60D
notes: as for B1
B19: 10A3D6C109Chum4.3 (antibody, V domains shown)
VH: B1 VH with P41H, V68A
VL: B1 VL with K39T
notes: as for B1
B20: 10A3D6 (murine monoclonal antibody) (antibody, mouse IgG1)
heavy: EVQLQQSGPELVKPGASMKISCKASGYSFTGYTMNWVKQSHGKNLEWIGLINPNTGGTYYNQKFKDKATLTVDKSSSTAYMELLSLTSEDSAVYYCARLGDNYRGYFDCWGQGTTLTVSSAKTTPPSVYPLAPGSAAQTNSMVTLGCLVKGYFPEPVTVTWNSGSLSSGVHTFPAVLQSDLYTLSSSVTVPSSPRPSETVTCNVAHPASSTKVDKKIVPRDCGCKPCICTVPEVSSVFIFPPKPKDVLTITLTPKVTCVVVDISKDDPEVQFSWFVDDVEVHTAQTQPREEQFNSTFRSVSELPIMHQDWLNGKEFKCRVNSAAFPAPIEKTISKTKGRPKAPQVYTIPPPKEQMAKDKVSLTCMITDFFPEDITVEWQWNGQPAENYKNTQPIMNTNGSYFVYSKLNVQKSNWEAGNTFTCSVLHEGLHNHHTEKSLSHSPGK
light: DIVMTQSHKFMSTSVGDRVNITCKASQDVGTAVVWYQQTPGQSPKVLIDWASIRHTGVPDRFTGSGSGTDFTLTISSVQSEDLADYFCQQYSTYLYTFGGGTKLEIKRADAAPTVSIFPPSSEQLTSGGASVVCFLNNFYPKDINVKWKIDGSERQNGVLNSWTDQDSKDSTYSMSSTLTLTKDEYERHNSYTCEATHKTSTSPIVKSFNRNEC
notes: copies: 2 + 2
B21: 10A3D6C109S-chimeric (antibody, human IgG1, V domains shown)
VH: EVQLQQSGPELVKPGASMKISCKASGYSFTGYTMNWVKQSHGKNLEWIGLINPNTGGTYYNQKFKDKATLTVDKSSSTAYMELLSLTSEDSAVYYCARLGDNYRGYFDSWGQGTTLTVSS
VL: DIVMTQSHKFMSTSVGDRVNITCKASQDVGTAVVWYQQTPGQSPKVLIDWASIRHTGVPDRFTGSGSGTDFTLTISSVQSEDLADYFCQQYSTYLYTFGGGTKLEIK
notes: Chimeric mutated variant; the name hIgG1k indicates human IgG1 kappa constant regions; also called 10A3D6C109ShIgG1k
B22: 10A3D6C109F-chimeric (antibody, human IgG1, V domains shown)
VH: B21 VH with S109F
VL: B21 VL
notes: Chimeric mutated variant; the name hIgG1k indicates human IgG1 kappa constant regions; also called 10A3D6C109FhIgG1k
B23: 10A3D6C109V-chimeric (antibody, human IgG1, V domains shown)
VH: B21 VH with S109V
VL: B21 VL
notes: Chimeric mutated variant; the name hIgG1k indicates human IgG1 kappa constant regions; also called 10A3D6C109VhIgG1k

What follows are binders tested against T1, human KLRB1 protein extracellular … (assay: SPR, human KLRB1 ECD; format not stated).
Experimental: The chimeric antibody 10A3D6-hIgGlk (a mouse/human chimeric antibody with 10A3D6 variable regions and human IgG1-kappa constant regions), chimeric mutated variants (10A3D6C109S, 10A3D6C109F, and 10A3D6C109V), and humanized variants of 10A3D6 created by CDR grafting (Almagro et al. 2008) were assayed for binding against human KLRB1 extracellular domain (ECD) via surface plasma resonance (SPR).

Row | Kd | koff | kon | Binder
1 | 106 pM | 9.54e-05 s⁻¹ | 903000 M⁻¹ s⁻¹ | B1
2 | 9420 pM | 0.00296 s⁻¹ | 314000 M⁻¹ s⁻¹ | B2
3 | 10200 pM | 0.0196 s⁻¹ | 1.92e+06 M⁻¹ s⁻¹ | B3
4 | 97.6 pM | 9.68e-05 s⁻¹ | 992000 M⁻¹ s⁻¹ | B4
5 | 155 pM | 0.000134 s⁻¹ | 868000 M⁻¹ s⁻¹ | B5
6 | 135 pM | 0.000112 s⁻¹ | 832000 M⁻¹ s⁻¹ | B6
7 | 121 pM | 0.000107 s⁻¹ | 880000 M⁻¹ s⁻¹ | B7
8 | 103 pM | 9.88e-05 s⁻¹ | 963000 M⁻¹ s⁻¹ | B8
9 | 98.5 pM | 9.41e-05 s⁻¹ | 955000 M⁻¹ s⁻¹ | B9
10 | 90.7 pM | 9.2e-05 s⁻¹ | 1.01e+06 M⁻¹ s⁻¹ | B10
11 | 15800 pM | 0.00721 s⁻¹ | 457000 M⁻¹ s⁻¹ | B11
12 | 12900 pM | 0.00408 s⁻¹ | 315000 M⁻¹ s⁻¹ | B12
13 | 109 pM | 9.89e-05 s⁻¹ | 905000 M⁻¹ s⁻¹ | B13
14 | 100 pM | 0.0001 s⁻¹ | 999000 M⁻¹ s⁻¹ | B14
15 | 21700 pM | 0.00253 s⁻¹ | 117000 M⁻¹ s⁻¹ | B15
16 | 93.2 pM | 9.35e-05 s⁻¹ | 1e+06 M⁻¹ s⁻¹ | B16
17 | 173 pM | 0.000138 s⁻¹ | 800000 M⁻¹ s⁻¹ | B17
18 | 71.7 pM | 8.6e-05 s⁻¹ | 1.2e+06 M⁻¹ s⁻¹ | B18
19 | 127 pM | 0.000109 s⁻¹ | 851000 M⁻¹ s⁻¹ | B19
20 | 259 pM | 0.000123 s⁻¹ | 475000 M⁻¹ s⁻¹ | B20
21 | 51.1 pM | 0.000303 s⁻¹ | 5.93e+06 M⁻¹ s⁻¹ | B21
22 | 62.7 pM | 0.000336 s⁻¹ | 5.36e+06 M⁻¹ s⁻¹ | B22
23 | 43.6 pM | 0.000293 s⁻¹ | 6.72e+06 M⁻¹ s⁻¹ | B23
